# Data taken from US20040121362A1.
# Assays:
# [1] = molecular target: Flag-RAI-3 recombinant protein expressed in the stable Flag-RAI-3 CHO cell line (CHO/NFAT G alpha 15), clone B8 (human) (UniProt Q8NFJ5); experiment: FACS, clone B8 against parental CHO
# [2] = molecular target: Flag-RAI-3 recombinant protein expressed in the stable Flag-RAI-3 CHO cell line (CHO/NFAT G alpha 15), clone B8 (human) (UniProt Q8NFJ5); experiment: FACS, gating 100%; parental CHO mean signal 4.82
# Chain of UniProt Q8NFJ5 (Q8NFJ5 other isoform, or with tags, fused parts or gaps): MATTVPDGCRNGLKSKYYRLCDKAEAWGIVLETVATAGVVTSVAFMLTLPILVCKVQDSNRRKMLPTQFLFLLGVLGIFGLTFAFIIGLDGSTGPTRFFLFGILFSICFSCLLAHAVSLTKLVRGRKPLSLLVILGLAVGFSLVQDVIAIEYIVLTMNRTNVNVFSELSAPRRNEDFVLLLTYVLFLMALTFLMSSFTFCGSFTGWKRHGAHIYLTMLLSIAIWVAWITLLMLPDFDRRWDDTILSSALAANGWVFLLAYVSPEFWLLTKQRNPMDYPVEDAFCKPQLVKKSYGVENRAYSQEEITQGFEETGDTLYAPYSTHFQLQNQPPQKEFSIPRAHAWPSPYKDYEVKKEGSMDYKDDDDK
substance,measurement,setting,value
"Anti-FLAG FITC (Sigma, Catalog #F4049) (antibody)",fold over background,[1],7 fold
same,mean signal,[2],35
